According to patent US20250295809A1:

Biological target: HER2 on cancer cell lines (BT-474, SK-BR-3, MDA-MB-361-luc) (human) (UniProt P04626)
Assay: cell-based or functional assay

ZW-25 bispecific antibody
Emax, BT-474 cell proliferation (CellTiter-Glo 2.0, 4 days): 41.5%
IC50, BT-474 cell proliferation (CellTiter-Glo 2.0, 4 days): 0.125 µg/mL
IC50, SK-BR-3 cell proliferation (CellTiter-Glo 2.0, 4 days): 0.431 µg/mL
